From patent US8822407B2, “Preparation of conjugates comprising adenine derivatives and allergenic proteins and their use for specific immunotherapy of allengenic diseases” (Universita' Degli Studi di Firenze, priority 2010, dated 2014)

How the values were obtained:
purified CD14+ cells = experiment: Cytokine production by purified CD14+ cells (ELISA of supernatants, 36 hrs); assay type: cell-based, human; details: for IL-6 production / IL-10 production / IL-12p40 production / TNF-alfa production: Table E
Description: Circulating mononuclear cells (MNC) are isolated by density gradient (Ficoll-Hypaque) using buffy coats from 14 normal donors (Servizio Immunotrasfusionale e terapie cellulari, Azienda Ospedaliera Universitaria A. Meyer, Firenze). 200×10^6 MNC are separated by the use of a commercial kit (CD14 isolation kit, Miltenyi) by the addition of 400 μl anti-CD14 monoclonal antibody bound to iron beads followed by isolation on magnetic columns (LS column). 50×10^6 monocytes are recovered by positive selection and are extensively washed with calcium and magnesium-free sterile PBS and then seeded in complete medium plus 10% foetal calf serum in 24 flat bottomed plates at the concentration of 1×10^6/ml. […] The plates are incubated for 36 hrs at 37° C. in 5% CO2 humidified atmosphere and the supernatants are collected after centrifugation at 1200 rpm, aliquoted and then stored at −20° C. up to the assay. […]
(§1) For the determination of cytokines and chemokines of the innate immunity, commercial ELISAs have been used: IL-12p40 (Cytoscreen, Biosource Int, Camarillo, Calif.), IFN-alfa (Cytoscreen), TNF-alfa (Cytoscreen), IL-10 (Pharmingen), IL-6 and CXCL10 (R&D System). 100 μl/well of single supernatants are incubated in flat bottomed plates as specified by the productors and the amounts of the single cytokines are expressed as pg/ml on the basis of a reference curve by using recombinant cytokines.

human TLR7 = target: T1, human TLR7 (Homo sapiens, UniProt Q9NYK1); experiment: TLR7 activation, NF-kB luciferase reporter in transfected HEK293 cells; assay type: cell-based; details: human TLR7-encoding plasmid
T1 construct: expressed in transfected cells; host or cells: HEK293 (transient Nucleofection, Amaxa)
T1 sequence (Q9NYK1 27-1049): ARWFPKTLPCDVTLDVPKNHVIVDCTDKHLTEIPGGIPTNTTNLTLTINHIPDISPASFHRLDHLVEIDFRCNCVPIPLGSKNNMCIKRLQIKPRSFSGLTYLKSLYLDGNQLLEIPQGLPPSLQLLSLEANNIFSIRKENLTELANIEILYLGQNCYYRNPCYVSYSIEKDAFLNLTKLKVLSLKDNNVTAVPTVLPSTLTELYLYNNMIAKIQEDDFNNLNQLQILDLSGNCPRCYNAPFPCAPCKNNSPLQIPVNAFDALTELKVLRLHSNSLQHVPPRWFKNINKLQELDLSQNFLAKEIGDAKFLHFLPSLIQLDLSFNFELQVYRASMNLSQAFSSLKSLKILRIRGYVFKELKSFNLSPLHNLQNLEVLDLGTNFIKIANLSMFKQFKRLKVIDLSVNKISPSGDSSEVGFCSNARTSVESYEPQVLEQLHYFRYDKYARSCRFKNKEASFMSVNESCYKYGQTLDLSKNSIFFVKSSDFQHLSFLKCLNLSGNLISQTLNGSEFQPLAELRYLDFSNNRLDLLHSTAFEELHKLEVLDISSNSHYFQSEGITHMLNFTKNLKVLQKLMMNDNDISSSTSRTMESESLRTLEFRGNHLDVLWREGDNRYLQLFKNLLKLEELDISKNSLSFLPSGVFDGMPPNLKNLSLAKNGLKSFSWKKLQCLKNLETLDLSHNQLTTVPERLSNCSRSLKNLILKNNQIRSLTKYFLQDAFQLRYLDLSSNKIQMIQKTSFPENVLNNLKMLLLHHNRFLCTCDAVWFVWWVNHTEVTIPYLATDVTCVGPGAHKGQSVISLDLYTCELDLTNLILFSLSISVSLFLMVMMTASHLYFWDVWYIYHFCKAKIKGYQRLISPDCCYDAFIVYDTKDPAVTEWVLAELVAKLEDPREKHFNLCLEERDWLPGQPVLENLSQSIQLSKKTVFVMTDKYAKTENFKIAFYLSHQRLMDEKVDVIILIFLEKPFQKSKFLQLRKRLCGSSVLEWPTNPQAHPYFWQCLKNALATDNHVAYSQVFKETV
Description: HEK293 cells are detached by trypsin from the plastic surface of the culture bottle, extensively washed with calcium and magnesium-free PBS, counted and adjusted at the concentration 1×10^6 cells/tube in polypropylene V-bottomed tubes. After the final wash, the cells are pelleted and 100 μl transfection buffer (Amaxa) is added together with […], TLR7, TLR8 or TLR9-encoding and ELAM-1 promoter NF-kB luciferase reporter plasmids. The mixture thus obtained is transferred in special cuvettes and transient transfection is obtained in a special apparatus which is able to directly introduce genetic material into the nucleus (Nucleofection®, Amaxa GmbH). The cells are then recovered and cultured at 1×10^5/ml in 48-flat bottomed plates in E-MEM medium plus 5% foetal calf serum for 18 hrs. […] Finally the luciferase activity is measured in the cellular lysates by a commercial kit (Promega).

purified BDCA4+ cells = experiment: Cytokine production by purified BDCA4+ cells (plasmacytoid dendritic cells), ELISA; assay type: cell-based, human; details: for IFN-alfa production / IL-6 production / IL-10 production / TNF-alfa production: Table F
Description: The preparation of purified BDCA4+ cells has been obtained in a similar way starting from MNC of buffy coats of the same 14 healthy donors. […] By positive selection 5×10^6 plasmacytoid dendritic cells (PDCs) are recovered, extensively washed with calcium and magnesium-free sterile PBS and seeded in complete medium plus 10% foetal calf serum in 24-flat bottomed plates at the concentration 1×10^6/ml. […] The plates are incubated for 36 hrs at 37° C. in 5% CO2 humidified atmosphere and the supernatants are collected after centrifugation at 1200 rpm, aliquoted and then stored at −20° C. up to the assay. […]
as §1

B1: nDer p2: purified natural allergen Der p2, major allergen from the house dust mite Dermatophagoides pteronyssinus (protein, UniProt P49278 18-146, looked up)
Mite group 2 allergen Der p 2: DQVDVKDCANHEIKKVLVPGCHGSEPCIIHRGKPFQLEAVFEANQNTKTAKIEIKASIDGLEVDVPGIDPNACHYMKCPLVKGQQYDIKYTWNVPKIAPKSENVVVTVKVMGDDGVLACAIATHAKIRD
modifications: natural purified
notes: purified natural allergen Der p2, major allergen from the house dust mite Dermatophagoides pteronyssinus
- IL-6 production (mean ± SE) (purified CD14+ cells; Table B, dose 10 μg/ml): 0 ± 0 ng/mL
- IL-10 production (mean ± SE) (purified CD14+ cells; Table B, dose 10 μg/ml): 0.4 ± 0.4 ng/mL
- IL-12p40 production (mean ± SE) (purified CD14+ cells; Table B, dose 10 μg/ml): 0 ± 0 ng/mL
- TNF-alfa production (mean ± SE) (purified CD14+ cells; Table B, dose 10 μg/ml): 0.05 ± 0.06 ng/mL
- IL-6 production (purified CD14+ cells; Donor #1, dose 10 μg/ml): 0 pg/mL
- IL-10 production (purified CD14+ cells; Donor #1, dose 10 μg/ml): 0 pg/mL
- IL-12p40 production (purified CD14+ cells; Donor #1, dose 10 μg/ml): 0 pg/mL
- TNF-alfa production (purified CD14+ cells; Donor #1, dose 10 μg/ml): 218 pg/mL
- IL-6 production (purified CD14+ cells; Donor #2, dose 10 μg/ml): 0 pg/mL
- IL-10 production (purified CD14+ cells; Donor #2, dose 10 μg/ml): 0 pg/mL
- IL-12p40 production (purified CD14+ cells; Donor #2, dose 10 μg/ml): 0 pg/mL
- TNF-alfa production (purified CD14+ cells; Donor #2, dose 10 μg/ml): 0 pg/mL
- cytokine production from purified CD14+ cells (in words) (purified CD14+ cells; text to Tables A and B): essentially unable to induce the production of valuable cytokines
- TLR7 activation (NF-κB luciferase) in transfected HEK293 cells (human TLR7): lack any activity
- IFN-alfa production (mean ± SE) (purified BDCA4+ cells; Table D, dose 10 μg/ml): 0.07 ± 0.06 ng/mL
- IL-6 production (mean ± SE) (purified BDCA4+ cells; Table D, dose 10 μg/ml): 0 ± 0 ng/mL
- IL-10 production (mean ± SE) (purified BDCA4+ cells; Table D, dose 10 μg/ml): 0 ± 0 ng/mL
- TNF-alfa production (mean ± SE) (purified BDCA4+ cells; Table D, dose 10 μg/ml): 0.03 ± 0.02 ng/mL
- IFN-alfa production (purified BDCA4+ cells; Donor #1, dose 10 μg/ml): 0 pg/mL
- IL-6 production (purified BDCA4+ cells; Donor #1, dose 10 μg/ml): 0 pg/mL
- IL-10 production (purified BDCA4+ cells; Donor #1, dose 10 μg/ml): 0 pg/mL
- TNF-alfa production (purified BDCA4+ cells; Donor #1, dose 10 μg/ml): 0 pg/mL
- IFN-alfa production (purified BDCA4+ cells; Donor #2, dose 10 μg/ml): 0 pg/mL
- IL-6 production (purified BDCA4+ cells; Donor #2, dose 10 μg/ml): 0 pg/mL
- IL-10 production (purified BDCA4+ cells; Donor #2, dose 10 μg/ml): 0 pg/mL
- TNF-alfa production (purified BDCA4+ cells; Donor #2, dose 10 μg/ml): 0 pg/mL
